Assays:
potato lectin (Sigma) [1] = target: T1, potato lectin (Sigma) (potato, UniProt Q9S8M0 23-323); assay: microcapsule retention; C: carboxyl capsules, EDC/Sulfo-NHS, 1 ug VHH/cm2; potato lectin coat 10 ug/ml; 10% coverage
T1 construct: Bought glycoprotein, coated on ELISA plates
T1 sequence (looked up): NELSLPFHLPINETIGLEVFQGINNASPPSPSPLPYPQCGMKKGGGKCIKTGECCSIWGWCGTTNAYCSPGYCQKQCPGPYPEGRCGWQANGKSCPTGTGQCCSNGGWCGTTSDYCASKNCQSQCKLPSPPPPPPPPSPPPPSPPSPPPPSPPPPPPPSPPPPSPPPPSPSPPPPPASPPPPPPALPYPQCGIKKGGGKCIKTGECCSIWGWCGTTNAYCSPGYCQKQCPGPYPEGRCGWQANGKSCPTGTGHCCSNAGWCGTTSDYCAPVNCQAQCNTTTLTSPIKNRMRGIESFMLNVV

potato lectin (Sigma) [2] = target: T1, potato lectin (Sigma); assay: microcapsule retention; C: carboxyl capsules, EDC/Sulfo-NHS, 1 ug VHH/cm2; potato lectin coat 100 ug/ml; 10% coverage

microcapsule counts (microcapsules) (potato lectin (Sigma) [1]): 50
microcapsule counts (microcapsules) (potato lectin (Sigma) [2]): 55
Substance: Control VHH

— US20130217572A1, “SPECIFIC DELIVERY OF AGROCHEMICALS” (VRIJE UNIVERSITEIT BRUSSEL, priority 2010, published 2013)
